Source: patent US20210079063A1 (UNIVERSITY OF CHICAGO, published 2021)

How the values were obtained:
[1] = biological target: T1, yeast small ubiquitin-like modifier (ySUMO) (yeast, UniProt Q12306 1-98 = SUMO, limits assumed); experiment: yeast surface display titration, KD column of the drawn table [b]
T1 construct: Target protein of the library selection; Construct not described

[2] = biological target: T1, yeast small ubiquitin-like modifier …; experiment: yeast surface display: therMonobody on yeast, soluble target titrated 0-2000 nM, mean fluorescence, fit of the 1:1 binding model
Source text: (§1) FIG. 6A-C. therMonobody library designs and generated clones. Amino acid sequences of therMonobodies generated from the loop-only library (a) and the side-and-loop library (b). The locations of diversified residues in the libraries are shown as spheres on the STOTEMP4 structure. “X” denotes a mixture of 30% Tyr, 13% Ser, 10% Gly, 5% Asp, 5% Leu, 5% Pro, 5% Trp and 2.5% each of all pther amino acids except for Cys and Met; “B”, a mixture of Ala, Ser, Thr, Asn, Asp and Tyr; “U”, a mixture of Ser, Thr, Asn and Tyr; “Z”, a mixture of Ala, Glu, Lys and Thr. (c) Binding measurements by yeast surface display of representative therMonobodies for each combination of library and target. The mean fluorescence intensities of yeast cells displaying therMonobodies are plotted as a function of the target concentration. The error indicated are the standard deviations from curve fitting of the 1:1 binding model.

[3] = biological target: T2, maltose-binding protein (MBP) (UniProt P0AEX9 27-396 = MBP); experiment: yeast surface display titration, KD column of the drawn table [b]
[4] = biological target: T2, maltose-binding protein (MBP); experiment: yeast surface display: therMonobody on yeast, soluble target titrated 0-1000 nM, mean fluorescence, fit of the 1:1 binding model
Source text: as §1

[5] = biological target: T1, yeast small ubiquitin-like modifier …; experiment: yeast surface display titration, KD column of the drawn table [a]
Abl SH2 [6] = biological target: T3, Abl SH2 (UniProt P00519 127-217, limits assumed); experiment: yeast surface display: therMonobody on yeast, soluble target titrated 0-1000 nM, mean fluorescence, fit of the 1:1 binding model
T3 construct: domain: SH2; Target protein of the library selection
T3 sequence (looked up): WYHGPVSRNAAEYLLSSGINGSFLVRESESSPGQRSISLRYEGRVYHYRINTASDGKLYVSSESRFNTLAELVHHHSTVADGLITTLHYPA
Source text: as §1

Abl SH2 [7] = biological target: T3, Abl SH2; experiment: yeast surface display titration, KD column of the drawn table [b]
[8] = biological target: T2, maltose-binding protein (MBP); experiment: yeast surface display titration, KD column of the drawn table [a]
Abl SH2 [9] = biological target: T3, Abl SH2; experiment: as above

T1 sequence (Q12306 1-98 limits assumed): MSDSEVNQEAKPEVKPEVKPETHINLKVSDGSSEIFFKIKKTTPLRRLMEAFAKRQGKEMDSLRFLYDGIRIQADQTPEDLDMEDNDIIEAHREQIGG

B1: SUMOMbS08 (designed binder)
therMonobody (FN3 domain): SSSSVPQIASIASGPETITVKWYDTNASYYYIYYWSLQYYREAVKIEVGNVTSYTIKHLKPGVTYYIQIVPFEEFGFGWYSGDPSDIISATPSSS
notes: side-and-loop library clone selected on ySUMO
Kd [1]: 65 nM

B2: SUMOMbS20 (designed binder)
therMonobody (FN3 domain): SSSSVPQIASIAVGPETITVKWYDTNASYYYIYYWSKHPKKVKIEVGNVTSYTIKHLKPGVTYYIQIVPFISYYDLYYSGDPSDIISATPSSS
notes: as for B1
Kd [1]: 95 nM

B3: SUMOMbS34 (designed binder)
therMonobody (FN3 domain): SSSSVPQIASIASGPETITVKWYDTNASYYYIYYWSGPYYYKKVTITVGNVTSYTIKHLKPGVTYYIQIVPYHVHDWGYYYYPSDIISATPSSS
notes: as for B1
Kd [2]: 20 nM
Kd [1]: 20 nM

B4: MBPMbS01 (designed binder)
therMonobody (FN3 domain): SSSSVPQIASIASGPETITVKWYDTNASYYYISYWSADYDSEAVAIAVGNVTSYTIKHLKPGVTYYIQIVPYKANSYYPGYGYPSDIISATPSSS
notes: side-and-loop library clone selected on MBP
Kd [3]: 33 nM

B5: MBPMbS09 (designed binder)
therMonobody (FN3 domain): SSSSVPQIASIASGPETITVKWYDTNASYYYISYWSYSTATVAIAVGNVTSYTIKHLKPGVTYYIQIVPYYGYRPYPSYGYPSDIISATPSSS
notes: as for B4
Kd [4]: 9 nM
Kd [3]: 9 nM

B6: MBPMbS12 (designed binder)
therMonobody (FN3 domain): SSSSVPQIASIASGPETITVKWYDTNASYYYISYWSGQSETVAIEVGNVTSYTIKHLKPGVTYYIQIVPYYPGYYPVHYVPSDIISATPSSS
notes: as for B4
Kd [3]: 484 nM

B7: SUMOMbL14 (designed binder)
therMonobody (FN3 domain): SSSSVPQIASIASGPETITVKWYDTNASYYYITYWSSSSQKVTINVGSPISYTIKHLKPGVTYYIQIVPYYTIGPDEYYYIPSDIISATPSSS
notes: loop-only library clone selected on ySUMO
Kd [2]: 44 nM
Kd [5]: 44 nM

B8: AblSH2MbS02 (designed binder)
therMonobody (FN3 domain): SSSSVPQIASIASGPETITVKWYDTNASFYYIYYWSTYPVTEEVEIKVGNVTSYTIKHLKPGVTYYIQIVPQYWYLGAGYPSDIISATPSSS
notes: side-and-loop library clone selected on Abl SH2
Kd (Abl SH2 [6]): 13 nM
Kd (Abl SH2 [7]): 13 nM

B9: AblSH2MbS07 (designed binder)
therMonobody (FN3 domain): SSSSVPQIASIASGPETITVKWYDTNASYYYIYYWSSYPVTEEVEIKVGNVTSYTIKHLKPGVTYYIQIVPGYYSYPYYLSPSDIISATPSSS
notes: as for B8
Kd (Abl SH2 [7]): 827 nM

B10: MBPMbL08 (designed binder)
therMonobody (FN3 domain): SSSSVPQIASIASGPETITVKWYWSSYYWSPFYYYITYWSSSSQKVTINVGNVTSYTIKHLKPGVTYYIQIVPYWYQYFPRYGYPSDIISATPSSS
notes: loop-only library clone selected on MBP
Kd [4]: 12 nM
Kd [8]: 12 nM

B11: AblSH2MbL04 (designed binder)
therMonobody (FN3 domain): SSSSVPQIASIASGPETITVKWYYYSIDVYYYITYWSSSSQKVTINVGPQTSYTIKHLKPGVTYYIQIVPYSFYSDSDYGYYPSDIISATPSSS
notes: loop-only library clone selected on Abl SH2
Kd (Abl SH2 [6]): 78 nM
Kd (Abl SH2 [9]): 78 nM

B12: MBPMbL17 (designed binder)
therMonobody (FN3 domain): SSSSVPQIASIAVGPETITVKWYRIPHAYYYYITYWSSSSQKVTINVGNVTSYTIKHLKPGVTYYIQIVPYYPSPWYLSYGYPSDIISATPSSS
notes: as for B10
Kd [8]: 41 nM
